Source: the RNAGym collection of RNA variant scans (doi:10.1093/molbev/msab373)

B1: Azoarcus group I ribozyme (parent)
chain: GUGCCUUGCGCCGGGAAACCACGCAAGGGAUGGUGUCAAAUUCGGCGAAACCUAAGCGCCCGCCCGGGCGUAUGGCAACGCCGAGCCAAGCUUCGGCGCCUGCGCCGAUGAAGGUGUAGAGACUAGACGGCACCCACCUAAGGCAAACGCUAUGGUGAAGGCAUAGUCCAGGGAGUGGCGAAAGUCACACAAACCGG

Variants of: B1
Test: reverse-splicing fitness (ratio to wild type); higher = more active; in vitro selection; Mg2+ level not given
Method in brief: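 An in vitro group I ribozyme library with randomized positions was T7-transcribed and gel-purified. In triplicate, 10 pmol RNA in EPPS pH 7.5 was reacted with 50 pmoles of a 30-nt RNA substrate for 1 h at 37 °C across several added MgCl2 levels (1–48 mM), then stopped with EDTA. Products were reverse transcribed from a substrate-complementary primer, PCR-amplified and sequenced (HiSeq 4000). Fitness is a variant's read proportion after selection over that before, normalised to wild type.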

Variant	reverse-splicing fitness
C82A A120G A145U C150U C169G	0.0173
C82A A120G A145U C150A C169A U176A	0.0132
C82A A120G A145U C150A C169A U176G	0.00386
C82A A120G A145U C150A C169A U176C	0.0115
C82A A120G A145U C169A	0.0137
C82A A120G A145U C169U	0.0145
C82A A120G A145U C169G	0.0204
C82A A120U A145G C150U C169G U176C	0.0042
C82A A120U A145G C150U C169G U176A	0.00591
C82A A120U A145G C150U C169G U176G	0.00214
C82A A120G A145U U176A	0.0131
C82A A120G A145U U176C	0.0146
C82A A120G A145U U176G	0.00426
C82A A120U A145U C150U C169A	0.00226
C82A A120U A145U C150U C169G	0.00375
C82A A120U A145U C150U C169U	0.00442
C82A A120G C150A C169A U176C	0.0216
C82A A120G C150A C169A U176A	0.0184
C82A A120G C150A C169A U176G	0.00586
C82A A120G U176A	0.0137
C82A A120G U176C	0.0184

Variant	reverse-splicing fitness
C82A A120G U176G	0.00511
C82A A120G A145U C169U U176A	0.02
C82A A120G A145U C169U U176G	0.00329
C82A A120G A145U C169U U176C	0.0169
C82A A120U A145U C150U C169G U176A	0.00257
C82A A120U A145U C150U C169G U176C	0.00288
C82A A120U A145U C150U C169G U176G	0.00197
C82A A120G A145U C169A U176G	0.00321
C82A A120G A145U C169A U176C	0.00947
C82A A120G A145U C169A U176A	0.0104
C82A A120U A145C C150G C169G U176G	0.00211
C82A A120U A145C C150G C169G U176C	0.00192
C82A A120U A145C C150G C169G U176A	0.00256
C82A A120G A145U C150G C169A U176G	0.00378
C82A A120G A145U C150G C169A U176A	0.0097
C82A A120G A145U C150G C169A U176C	0.01
C82A A120G C169U U176C	0.0175
C82A A120G C169U U176A	0.0233
C82A A120G C169U U176G	0.00475
C82A A120G A145U C150G C169A	0.00891
C82A A120G A145U C150G C169G	0.00902

Variant	reverse-splicing fitness
C82A A120G A145U C150G C169U	0.00862
C82A A120U A145G C169A U176C	0.00257
C82A A120U A145G C169A U176A	0.00307
C82A A120U A145G C169A U176G	0.00129
C82A A120G A145U C169G U176C	0.0144
C82A A120G A145U C169G U176G	0.00322
C82A A120G A145U C169G U176A	0.0118
C82A A120U A145U C150G C169U U176G	0.0021
C82A A120U A145U C150G C169U U176C	0.00262
C82A A120U A145U C150G C169U U176A	0.0025
C82A A120U A145C	0.128
C82A A120U A145G	0.142
C82A A120U A145U	0.148
C82A A120U A145G U176C	0.0599
C82A A120U A145G U176A	0.0348
C82A A120U A145G U176G	0.0073
C82A A120U A145U C150G C169G	0.00265
C82A A120U A145U C150G C169U	0.00321
C82A A120U A145U C150G C169A	0.00305
C82A A120U C150A	0.016
C82A A120U	0.154

Variant	reverse-splicing fitness
C82A A120U A145U C169A U176A	0.00216
C82A A120U A145U C169A U176G	0.00177
C82A A120U A145U C169A U176C	0.00182
C82A A120U A145G C169U U176G	0.00139
C82A A120U A145G C169U U176C	0.00364
C82A A120U A145G C169U U176A	0.00354
C82A A120U C150A U176C	0.00899
C82A A120U C150A U176G	0.00257
C82A A120U C150A U176A	0.00729
C82A A120U A145C C150U C169G	0.00276
C82A A120U A145C C150U C169A	0.00197
C82A A120U A145C C150U C169U	0.00313
C82A A120U A145G C150A	0.0231
C82A A120U A145G C150U	0.116
C82A A120U A145G C150G	0.0192
C82A A120G A145U C150U C169U U176C	0.0174
C82A A120G A145U C150U C169U U176G	0.00449
C82A A120G A145U C150U C169U U176A	0.0201
C82A A120G A145U C150U U176G	0.00531
C82A A120G A145U C150U U176A	0.0108
C82A A120G A145U C150U U176C	0.0158
